Data on four molecules can be found in article PMC3696110, “Hsp70 Oligomerization Is Mediated by an Interaction between the Interdomain Linker and the Substrate-Binding Domain” (PLoS ONE, 2013).

For data set [1] the following is noted: previously reported; ref [S3]; cited from earlier work. How it is done:
Supplementary file pone.0067961.s005.tif: Figure S4 Concentration dependency of the analytical SEC chromatograms of the 'C-term' variant. The protein concentrations used were 1µM (black line), 2µM (orange line), 5 µM (pink line), 10 µM (cyan line), 70 µM (red line) and 125 µM (green line). Essentially the same elution profile was found for all the protein concentrations used. At the top the chromatogram the previously reported Stokes radii of the standard proteins used to calibrate the column are reported: conalbumin (40.4 Å), ovalbumin (30.5 Å), carbonic anhydrase (23.6 Å) [S3], ribonuclease ...

Data set [2] can be described thus: nESI-MS relative populations of oligomeric forms. In kind it is physicochemical, human. Particulars: 6-15 µM protein, 150 mM ammonium acetate, pH 7.4, estimated error 5% (SD of 3-4 independent experiments). How it is done: Prior to MS analysis, samples were buffer exchanged into 150 mM ammonium acetate, pH 7.4, using Micro Bio-spin 6 columns (Bio-Rad, Digilab Division, Cambridge, MA, USA). For all the experiments protein concentrations ranging from 6 to 18 µM were used. In the case of the substrate binding experiments, proteins were analyzed in the presence of a 1: 1 molar ratio of the NR peptide; this substrate concentration, lower than in the SEC experiments, was chosen to ensure adequate resolution of the various charge state series, which is critical for unambiguous assignment of substrate-bound states. Due to suppression effects during nESI ionization, a relatively limited set of molar ratios could be investigated by in this way.
nESI-MS spectra were obtained according to a previously published protocol on an orthogonal time-of-flight mass spectrometer with a Z-spray source (LCT, Waters, Manchester, UK) in positive ion mode using the following parameters: capillary voltage, 1500 V; sample cone voltage, 120 V (unless otherwise specified); extraction cone voltage, 1V; and ion transfer stage pressure, 8.8 mbar. Spectra were calibrated externally using a 33 mg/ml solution of cesium iodide. Data were acquired and processed with MassLynx software (Waters, Manchester, UK), and are shown with minimal smoothing and without background subtraction. The relative abundances of the different oligomeric states were estimated from the intensities of the most abundant charge states for each construct and are expressed as a percentage of the total intensity.

Data set [3] in a line: Analytical SEC relative populations of oligomeric forms. The data set is classed as physicochemical, human. To be noted: Superdex 75, 4 °C, 50 mM Tris pH 7.4, 150 mM KCl. How it is done: (§1) Analytical SEC was performed at 4 °C using a Superdex 75 10/300 GL column (GE Healthcare LifeSciences, Little Chalfont, U.K.), which had previously been calibrated using a mixture of standard proteins (Gel Filtration LMW Calibration Kit; GE Healthcare LifeSciences, Little Chalfont, U.K.). Typically, samples of the various constructs contained 70 µM of protein in 50 mM Tris buffer at pH 7.4, with 150 mM KCl, 5 mM MgCl2 and were incubated for 15 min (unless otherwise specified) at room temperature before being loaded onto the column for analysis. To evaluate the reversibility of the oligomerization process, the different elution peaks obtained for each protein variant were subsequently analyzed after concentrating the different fractions using AmiconUltra-0.5, Ultracel-3 Membrane, 3 kDa (Millipore, Bedford, MA, USA). A similar analysis was also performed at 6 µM concentration for all the protein variants to allow for a direct comparison between the results obtained by SEC and MS experiments.
The influence of substrate binding on the oligomerization properties of all the variants was examined by using the well-characterized Hsp70 substrate, the NR peptide (NRLLLTG, Genemed Synthesis Inc., San Antonio, TX, USA). A 14-fold excess of the peptide was added in each case to a fresh protein sample, incubated for 1 h at room temperature, unless otherwise specified, and then loaded onto the Superdex 75 10/300 GL column for analysis. The relative quantities of the different protein species were estimated by analysing the chromatographic profile using a Gaussian function for each elution peak (OriginPro 8, Originlab, Northampton, MA, USA) and measuring the relative area under each peak.

Data set [4] can be described thus: Thermal denaturation monitored by far-UV CD. In kind it is physicochemical, human. How it is done: Protein structural stability was analyzed by monitoring the CD signal at 222 nm upon thermal denaturation. Thermal runs were performed from 5 to 90 °C at a rate of 1 °C. min^-1. Data points were acquired every 0.1 °C with a response time of 2 s and a bandwidth of […]. After thermal denaturation, each protein sample was cooled to the starting temperature, and a second denaturation curve recorded in order to analyse the degree of reversibility of the denaturation process. Analysis of the thermal unfolding curves was performed assuming a three-state unfolding model.

Data set [5] in a line: Secondary structure content from far-UV CD. The data set is classed as physicochemical, human. To be noted: K2D software; 20 µM protein, 7 mM Tris pH 7.4, 170 mM KCl, 5 mM MgCl2; 25 °C. The method, then: Far-UV CD spectra for all protein variants were recorded using a Jasco J-810 spectropolarimeter equipped with a Peltier holder, using a 0.1 cm path length cuvette. Typically, samples contained 20 µM protein in 7 mM Tris buffer at pH 7.4, containing 170 mM KCl and 5 mM MgCl2. The far-UV CD spectra of all the variants in their native, thermally denatured and refolded states were recorded from 198 to 250 nm, and the spectrum of the buffer was systematically subtracted from the spectra of all protein samples. The secondary structure content was estimated from the far-UV CD spectrum for each protein variant using K2D software.

A short description of data set [6]: Tryptophan (W580) fluorescence emission. In kind it is physicochemical, human. To be noted: W580, excitation 295 nm. How it is done: Steady-state tryptophan fluorescence emission spectra of native, thermally denatured and refolded proteins were recorded from 300 to 400 nm, selectively exciting the only tryptophan residue in the SBD (W580) at 295 nm, using a Cary Eclipse spectrofluorimeter (Varian, Palo Alto, CA, USA). Excitation and emission band-passes were set to 5 nm each.

The nature of data set [7]: Analytical SEC, Stokes radius and oligomeric state. The data set is classed as physicochemical, human. How it is done:
as §1

[8] abbreviates: 70 µM protein, 5 mM MgCl2, 15 min at room temperature, estimated error 3.5% (SD of 3-4 independent experiments).
Setting [9] is: 6-15 µM protein, 5 mM MgCl2, estimated error 3.5% (SD of 3-4 independent experiments).

B1: ovalbumin: SEC standard protein (protein, UniProt P01012 2-386, looked up)
Ovalbumin: GSIGAASMEFCFDVFKELKVHHANENIFYCPIAIMSALAMVYLGAKDSTRTQINKVVRFDKLPGFGDSIEAQCGTSVNVHSSLRDILNQITKPNDVYSFSLASRLYAEERYPILPEYLQCVKELYRGGLEPINFQTAADQARELINSWVESQTNGIIRNVLQPSSVDSQTAMVLVNAIVFKGLWEKAFKDEDTQAMPFRVTEQESKPVQMMYQIGLFRVASMASEKMKILELPFASGTMSMLVLLPDEVSGLEQLESIINFEKLTEWTSSNVMEERKIKVYLPRMKMEEKYNLTSVLMAMGITDVFSSSANLSGISSAESLKISQAVHAAHAEINEAGREVVGSAEAGVDAASVSEEFRADHPFLFCIKHIATNAVLFFGRCVSP
B1: the “Stokes radius of SEC standard protein” value in data set [1] is 30.5 Å.

B2: C-term: truncated human Hsp70 (540-641), C-terminal segment of helix B, helices C-E and disordered C-terminal region (protein, UniProt P0DMV8 540-641, looked up, fragment)
chain: NALESYAFNMKSAVEDEGLKGKISEADKKKVLDKCQEVISWLDANTLAEKDEFEHKRKELEQVCNPIISGLYQGAGGPGPGGFGAQGPKGGSGSGPTIEEVD
Regarding B2, in data set [2], the Dimer population is given as 0%, the Total oligomer population was 0% and the Trimer population is recorded as 0%. In data set [3] (setting [8]), the Dimer population was 0%, the Monomer population is recorded as 100% and the Total oligomer population is 0%. Besides, in data set [3] (setting [9]), the Dimer population is recorded as 0%, the Monomer population is 100% and the Total oligomer population is given as 0%. The “∆Hm, 1st transition” value in data set [4] (CD 222 nm, 20 µM protein, 7 mM Tris pH 7.4, 170 mM KCl, 5 mM MgCl2, three-state fit (C-term two-state), SE of fit) worked out at 215 ± 6.28 kJ/mol. For the same molecule, in data set [4] (CD 222 nm, 5 to 90 °C at 1 °C/min, 20 µM protein, 7 mM Tris pH 7.4, 170 mM KCl, 5 mM MgCl2, three-state fit (C-term two-state), SE of fit), the “Tm, 1st transition” value came out at 49.9 ± 0.2 °C. The “Reversibility of thermal unfolding” value in data set [4] (far-UV CD, second denaturation curve after cooling) was “reversibly”. Also, in data set [5], the “Random-coil content estimated from far-UV CD” value was 33%, the “α-helix content estimated from far-UV CD” value is 60% and the “β-sheet content estimated from far-UV CD” value is 7%. The “Red-shift of fluorescence emission maximum, native to refolded” value in data set [6] is listed as “not observed”. Besides, in data set [7] (analytical SEC, 1 to 125 µM, single elution peak at 11.8 ml), the Oligomeric state result is “monomeric”. The Stokes radius in data set [7] (analytical SEC, from retention volume) is 21.4 Å. In addition, the “Ability to dimerize in isolation” value in data set [7] (under experimental conditions used) is on record as “unable to dimerize in isolation”.

B3: ribonuclease A: SEC standard protein (protein, UniProt P61823 27-150, looked up)
Ribonuclease pancreatic: KETAAAKFERQHMDSSTSAASSSNYCNQMMKSRNLTKDRCKPVNTFVHESLADVQAVCSQKNVACKNGQTNCYQSYSTMSITDCRETGSSKYPNCAYKTTQANKHIIVACEGNPYVPVHFDASV
Regarding B3, the “Stokes radius of SEC standard protein” value in data set [1] was 16.4 Å.

B4: conalbumin: SEC standard protein (protein, UniProt P02789 20-705, looked up)
Ovotransferrin: APPKSVIRWCTISSPEEKKCNNLRDLTQQERISLTCVQKATYLDCIKAIANNEADAISLDGGQAFEAGLAPYKLKPIAAEVYEHTEGSTTSYYAVAVVKKGTEFTVNDLQGKTSCHTGLGRSAGWNIPIGTLLHRGAIEWEGIESGSVEQAVAKFFSASCVPGATIEQKLCRQCKGDPKTKCARNAPYSGYSGAFHCLKDGKGDVAFVKHTTVNENAPDQKDEYELLCLDGSRQPVDNYKTCNWARVAAHAVVARDDNKVEDIWSFLSKAQSDFGVDTKSDFHLFGPPGKKDPVLKDLLFKDSAIMLKRVPSLMDSQLYLGFEYYSAIQSMRKDQLTPSPRENRIQWCAVGKDEKSKCDRWSVVSNGDVECTVVDETKDCIIKIMKGEADAVALDGGLVYTAGVCGLVPVMAERYDDESQCSKTDERPASYFAVAVARKDSNVNWNNLKGKKSCHTAVGRTAGWVIPMGLIHNRTGTCNFDEYFSEGCAPGSPPNSRLCQLCQGSGGIPPEKCVASSHEKYFGYTGALRCLVEKGDVAFIQHSTVEENTGGKNKADWAKNLQMDDFELLCTDGRRANVMDYRECNLAEVPTHAVVVRPEKANKIRDLLERQEKRFGVNGSEKSKFMMFESQNKDLLFKDLTKCLFKVREGTTYKEFLGDKFYTVISSLKTCNPSDILQMCSFLEGK
Regarding B4, the “Stokes radius of SEC standard protein” value in data set [1] is listed as 40.4 Å.
